For two substances, Kd, fold change of affinity (steady state) against MD65 IgG and fold change of on-rate against MD65 IgG results are on record in publication PMC7878817.

The target of one assay is human FcRn (human) (UniProt P55899). As to the kind of experiment: BLI; pH 6.0.
Another assay concerns the target MD65 IgG-YTE (human). Description: BLI. Background: BLI is a label-free optical method that tracks binding on a fibre tip over time.

Consider MD65 IgG-YTE, for which the dissociation constant (Kd) (in general, the constant that tells how readily two partners part at equilibrium) in the assay with human FcRn (human) worked out at 20 nM.

In the assay with MD65 IgG-YTE (human), “human FcRn (from UniProt P55899 24-297) (receptor)” yielded a fold change of affinity (steady state) against MD65 IgG of 10 fold and a fold change of on-rate against MD65 IgG of 3 fold.
